B1: Protein S100-G, residues 1 to 79; numbered along this chain, P02633 (parent)
chain: MSAKKSPEELKGIFEKYAAKEGDPNQLSKEELKLLLQTEFPSLLKGPSTLDELFEELDKNGDGEVSFEEFQVLVKKISQ

Variants of: B1
Experiment: abundance fitness (aPCA) (normalised: wild type 0, dead -1); higher = more abundant; growth selection in yeast, the domain comes from the species named
Conditions: Bos taurus

Abundance fitness: each site, then its substitutions
S28: P -0.033; T -0.083; E -0.05; H -0.041; I -0.282; C -0.07; N -0.049; L -0.208; V -0.156; W -0.465; K -0.048; Y -0.277; D 0.037; Q -0.008; M -0.218; A 0; F -0.425; R -0.065
L35: E -1.11; D -1.44; S -0.206; M 0.031; H -0.724; P -2.06; Q -0.684; T -0.174; G -0.51; I 0.016; K -0.829; N -1.04; C -0.064; W -0.313; F -0.164; A 0.02
K33: G 0.033; E -0.032; H -0.041; T 0.059; C -0.072; R -0.005; I -0.051; W -0.479; A 0.043; F -0.022; Y -0.121; V -0.016; N -0.016
E30: M 0.022; L -0.053; V 0.071; C -0.018; R 0.03; D 0.073; W -0.074; Y -0.042; P 0.026; S 0.048; F -0.006; T -0.001; K -0.023; Q 0.04; G -0.057; N 0.061; A -0.016; H -0.026; I -0.032
Q26: P -0.523; R 0.054; N -0.048; S 0.042; V -0.081; W 0.037; Y 0.021
L36: F -0.008; E -1.37; H -1.08; A -0.1; C -0.099; D -2.17; G -0.589; I -0.013
K29: F 0.017; H 0.06; M -0.057; Q -0.099; Y 0.12; N 0.07; R 0.027; I 0.056; G -0.078; L -0.008; V 0.038; A 0.025; T 0.007; S -0.006; E -0.14; D -0.007; C 0.002
L27: Q -0.839; D -0.855; G -0.786; I 0.105; M -0.054; Y -0.764; W -0.936; H -0.751; C 0.006; K -0.844; V -0.02; P -0.846; A -0.137; E -1.04; S -0.611; N -0.681; F -0.48; R -0.673; T -0.335
L32: T -0.054; E -1.72; Y -0.205; R -0.874; V -0.067; K -1.03; S -0.138; W -0.209; F -0.048; I 0.067; H -0.951; C -0.097; N -0.673; D -3.08; A 0.027; Q -0.616; P -2.71
L34: I 0.018; A 0.066; D 0.113; H 0.05; K 0.027; Y -0.015; F -0.036; V -0.031; S -0.04; R 0.05; E 0.054; C -0.045; G 0.035; N 0.041; T 0.023
E31: Y -0.07; R -0.064; V -0.033; C -0.153; N 0.023; I 0.032; D 0.054; P -0.022; G 0.015; H -0.016; W -0.171; T -0.175; K -0.006; M -0.007; S 0.002; L -0.045; A -0.108; F -0.123

— the Human Domainome abundance scans (Beltran et al. 2025)
